Values of other authors as cited in publication PMC7481795.
Like-named read-outs stand apart in the source and are kept apart here.

Legend:
[1] = target: β-glucuronidase (Homo sapiens) (UniProt P08236)
[2] = target: β-glucuronidase (Homo sapiens) (UniProt P08236); remark: listed apart in the source

Sequence of β-glucuronidase (Homo sapiens) (P08236 23-651): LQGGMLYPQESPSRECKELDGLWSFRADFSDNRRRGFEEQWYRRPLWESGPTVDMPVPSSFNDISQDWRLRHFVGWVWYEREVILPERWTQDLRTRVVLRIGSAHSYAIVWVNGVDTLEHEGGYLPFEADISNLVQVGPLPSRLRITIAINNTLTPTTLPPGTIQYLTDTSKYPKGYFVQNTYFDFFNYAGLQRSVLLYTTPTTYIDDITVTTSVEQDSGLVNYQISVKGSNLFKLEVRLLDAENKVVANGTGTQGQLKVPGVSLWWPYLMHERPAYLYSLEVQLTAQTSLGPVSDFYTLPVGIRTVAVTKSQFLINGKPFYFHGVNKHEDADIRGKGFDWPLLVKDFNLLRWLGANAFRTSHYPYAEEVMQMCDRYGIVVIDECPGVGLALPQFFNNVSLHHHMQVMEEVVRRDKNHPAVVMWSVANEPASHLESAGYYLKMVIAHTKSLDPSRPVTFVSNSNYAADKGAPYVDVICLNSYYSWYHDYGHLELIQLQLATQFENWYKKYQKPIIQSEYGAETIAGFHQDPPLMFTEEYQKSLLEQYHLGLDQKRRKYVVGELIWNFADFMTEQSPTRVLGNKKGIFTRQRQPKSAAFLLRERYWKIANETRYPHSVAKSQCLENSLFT
Sequence of cation-independent mannose 6-phosphate receptor domains 1-3 (P08169 45-477): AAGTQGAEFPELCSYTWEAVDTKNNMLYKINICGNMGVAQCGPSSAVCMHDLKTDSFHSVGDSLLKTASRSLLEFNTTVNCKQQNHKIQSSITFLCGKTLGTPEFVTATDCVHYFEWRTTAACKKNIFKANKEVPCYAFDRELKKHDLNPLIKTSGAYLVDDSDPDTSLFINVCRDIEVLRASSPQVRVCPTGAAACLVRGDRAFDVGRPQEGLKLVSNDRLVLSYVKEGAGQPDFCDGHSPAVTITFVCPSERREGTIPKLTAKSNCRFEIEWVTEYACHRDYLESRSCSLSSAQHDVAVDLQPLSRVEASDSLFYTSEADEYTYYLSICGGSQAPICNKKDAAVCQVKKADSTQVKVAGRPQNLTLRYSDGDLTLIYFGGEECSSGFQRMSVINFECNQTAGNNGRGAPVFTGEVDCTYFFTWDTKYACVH
Sequence of cation-independent mannose 6-phosphate receptor domain 3 (P08169 332-477): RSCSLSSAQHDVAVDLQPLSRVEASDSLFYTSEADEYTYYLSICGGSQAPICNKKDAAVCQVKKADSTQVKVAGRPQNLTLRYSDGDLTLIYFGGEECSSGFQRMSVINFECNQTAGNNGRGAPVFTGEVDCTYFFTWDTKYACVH

Substance | Kd [1] | Kd [2]
cation-independent mannose 6-phosphate receptor domain 3 (from UniProt P08169) | 500 nM | –
cation-independent mannose 6-phosphate receptor domains 1-3 (from UniProt P08169) | – | 0.5 nM
